# Measured values published in PMC9544252.
# Tests used:
# [1] = molecular target: HIV-1 CAP256 SU Env gp140 produced in HEK293 cells (HIV-1 (subtype C, CAP256 SU)); assay: SEC; gel filtration of lectin-purified gp140; normalised, overlaid elution profiles
# [2] = molecular target: HIV-1 CAP256 SU Env gp140, "glycan-enhanced" (GE), produced in N. benthamiana ∆XF (HIV-1 (subtype C, CAP256 SU)); assay: as above
Substance,stoichiometry N [1],stoichiometry N [2]
HIV-1 CAP256 SU Env gp140 produced in HEK293 cells (natural protein),3,
"HIV-1 CAP256 SU Env gp140, ""glycan-enhanced"" (GE), produced in N. benthamiana ∆XF (natural protein)",,3
